Literature values, collected in PMC13681993.

Target: GAB1 pY627 (Homo sapiens) (UniProt Q13480)
Test: fluorescence polarization

Substance: PTPN11 N-SH2 (from UniProt Q06124)
- Kd: 287 nM
